assay: soluble on expression in E. coli; label from the status in PepcDB or PDB records

| Sequence | soluble on expression in E. coli |
| --- | --- |
| MGHHHHHHSHMLSPERLALPDYEYLAQRHVLTYMEDAVCQLLENREDISQYGIARFFTEYFNSVCQGTHILFREFSFVQATPHNRVSFLRAFWRCFRTVGKNGDLLTMKEYHCLLQLLCPDFPLELTQKAARIVLMDDAMDCLMSFSDFLFAFQIQFYYSEFLDSVAAIYEDLLSGKNPNTVIVPTSSSGQHRQRPALGGAGTLEGVEASLFYQCLENLCDRHKYSCPPPALVKEALSNVQRLTFYGFLMALSKHRGINQALGALPDKGDLMHDPAMDEELERLLAQVPGLVNSVTASPEASCLPSRTPPRVGSPWRPLHHSRKVDGESDGSTEETDESET | not soluble |
| MGSDKIHHHHHHAQTPQDSVRFIGYLPVRHTDPTKWITRYQSEIDRYQTENQMLKDTSCDVLFLGSSSINLWDNIYRDMAPLKILRRSYGGAALRDMLYNYDVIARGYHPRSIVIYVENDLAGTPEDLTVGETFDFFRLLTNRLQRDYPDIPIFILSYKPSLARKEMIPKHEIINALLQEYASKRGGLTYIDVASCLYDNNGKLRKDIFKQDGLHMNQNGYDLWTAILKPKILESIR | not soluble |
| MLSFVKELNFEINQKKYFIKIYLQPRIKYIKIKIINHQIVCLINHLKLINIAEEFIKNNKLKILKIYENDLKKIKYDEQSLDWIILLGIKFTTIKIKNNNFHCQFNFQKQIIYLYDQNQNLTNTKLLYQKILIYLAEIIFPQIIKNAQNITTLTVKKYVFGFYKSQWGVYNKIKHTIGLSYFLVHYDQDIINYVVIHELAHIKYQHHQKSFWDFVLKYCKNAKIYNNQLKFLEHHHHHH | soluble |
| MKYDTSELCDIYQEDVNVVEPLFSNFGGRSSFGGQIITVKCFEDNGLLYDLLEQNGRGRVLLVDGGGSVRRALVDAELARLATQNEWEGLVIYGAVRQVDDLEELDIGIQAIAAIPVGAAGEGIGESDVRVNFGGVTFFSGDHLYADNTGIILSEDPLDIE | not soluble |
| MGSDKIHHHHHHMFAPFAGETSRGEADMSGDLDQATMDRLFAKARTYSKFTKAPVSDDLLRQAWDLARMGPTSVNCQPMRVVFVRSSAAKERLKPALAPGNLDKTMAAPVTAIIAHDMEFYEQLPKLFPHADARAWFVGNEAMIQSTAFRNGTLQGAYFILALRAIGLDCGPMSGFDNAKLDEAFFKGTTLRSNFLVNIGHGDAAGLYPRGPRLDFDEACRVE | not soluble |
| AIAVHQASPVKNISDTRPKRSPEYWYYYCTYEDNSVKSPLVPGLKVETQAVADRFSADIFSAVERYNQLFSEVQKQSFKYVPEEESDNQSN | soluble |
| SLDSPADNPVDSTASDRPVEGRDRDDEGRARNARPRDGLGRPLPYGANGVPRQPEGVVRAPEATVAEAQRLLDDGKPFHAHEVFEDAWKAGPEEERELWRGMAQLAVGLTHSARGNATGGARLLRRGAGAVTAWAASEAGRERPYGMDLGAVAGWARELAGEVEGGGSVDAAARAPRLRG | not soluble |
| MAHHHHHHMTDVDQWKCASFKQEEDHSEATDALLERINATAIPVLLRSTNSSLDDLVNELLALEKMARLGGDALSAKRLVVEILRIYRVHGDHEKMLDTLETLMRKRGQTKQSQGAMIAECGVLLTEGNLSREQRRIVLERVVHLTDSRIHVELEHVRFAIDLAKLMEDDGEKRAACDLLSGLHVETVTNMPRVEKLDALNRLIRLCLELEDYELARLVSRRINHRALSRPGALQAKLKYFELMREYFAQRRSYFHVARCWYETFLSETDETACVSALSSMAVHYLIAEHSSPKELEDHAECAAFSPATKFADRTAAIQGITTTLRKRLEENPQLQYLLEKFTSIELIRERVADDVEALCINHPQLAGFPERQALLRSRCSEHDLLVISRFYRRLRLVRLAELVGLTPQHTEEFLMMMVASRTLYAKIDRVDGLVVFEANKNANDVVTAWDEAVGRSVALLDKVSHLIVKERMLHNITLAQLQQSGATAS | not soluble |
| MDTSDHKPLIDRFETEFAEKSSLLRKEESELKRPDLRGDFLCLSCGQNFKHGASLNRHRKLVHSDEYTCMLCARKLYLKETVRDHMRNEHYLGQVYTCGCCNWTFSNKKALTEHAKAIQETGAPGDANPIAKSGNSPGSLLKSPIQRAGFKLNRLLNKSLSPSTSNSTTSSSSRDASGSPQPELELKLEPEPEPEPNEEALEYKRFFNNAVDTILQRNFFTDQQITEVDTWVIIIESANALATALQSYKKAQQIQPAEPAMIPEKRIKPEIE | soluble |
| MTVTFTLPLDCSFNNLWTCHAEGIERDLGKVGGGAASSGKTSTGVSRTVTRGVNLSGADFSEQDLSGVSFQQSLLRETDFHGAKLVSASFFGAELSYANLEDADLTEANLELANLRSAKLKNAVLRRAYFSGNTRLENVDIDGADFSEVILRKDQKKYLCNIANGTNSHTGVETKTSLGCNSS | not soluble |
| MCEQCGKCKCGECTAPRTLPSCLACNRQCLCSAESMVEYGTCMCLVKGIFYHCSNDDEGDSYSDNPCSCSQSHCCSRYLCMGAMSLFLPCLLCYPPAKGCLKLCRRCYDWIHRPGCRCKNSNTVYCKLESCPSRGQGKPSLEHHHHHH | not soluble |
| MAHHHHHHMKQSDFIFFVLRFWHFVPPYIIEKYAVSAFLNEDFLRAIRLKIEELRPPGRREPHSCVLKEHSDTSFTRKEVLPPPERLSNPVAMDHWVLYEPKVQNFPLVDGFFLVDSNPMTLVGLRMTTAGEHRTTTSTVRQFTECLAAYFNGWEELSRDMSWEIINVQHADSTPINDWQRCDVVDSDNVSRAENREIAAFWEEEVRQYIAAVSSGDF | not soluble |
| MVPCWNHGNITRSKAEELLSRTGKDGSFLVRASESISRAYALCVLYRNCVYTYRILPNEDDKFTVQASEGVSMRFFTKLDQLIEFYKKENMGLVTHLQYPVPLEEEDTGDDPEEDTVESVVSPPELPPRNIPLTASSCEAKEVPFSNENPRATETSRPSLSETLFQRLQSMDTSGLPEEHLKAIQDYLSTQLAQDSEFVKTGSSSLPHLKKLTTLLCKELYGEVIRTLPSLESLQRLFDQQLSPGLRPRPQVKG | soluble |
| MGSDKIHHHHHHMPYINVRGVEHYYEWVKQPSGDLVKPVMVFIHGWAGSARYWISTANALSDQFDCLLYDLRGFGRSQGKPTVAQASESVVGADSTQEKSQAIQELTYEIEEYAEDLVVLLDELKLQRVYVNAHSMGASVATMFFNRYPQRVERGILTCSGIFEYDEKAFAAFHKFGGYVVKFRPKWLGKIPLVDRMFMARFLHRPIPKSERKAFLEDFLVADYDTALGTIFTSVSKAQAEVMPQEFAKLQVPTLLVAGEYDQIIPAKMGRQAASLNDKVEFVLIPNTAHFPMLEDAPTYLRRVREFLQVATPELQTS | not soluble |
| MATQKEKPSSNSFKWFSTKTLKLNLSFQNRRRSPKSNSSSTLNSPRSNSDDNNNIKSHQASKEELRQVFSHFDSDGDGKISAFELRHYFGSVGEYISHEAAQEAINEVDTDADGSLGFEDFVGLMTRRDLYGDGEVDGDGELKTAFEMFEVEKGSGCITPKGLQKMLVKLGESRTYGECEAMIKFYDIDGNGILDFHEFRQMMTV | soluble |
| MGSDKIHHHHHHMTVNSIKLLLLPALLLLVSACSSPEPIISLSGSTMGTTYHIKVVNSDRLPEAQLLQAEIDMALEVVNDQMSTYRSDSELSKFNQLQVQQSVKVSADTIKVIEEGMRLYQETDGALDITLGPVVNLWGFGPDKRPTTIPTQAQIDNAKAKMGIKELSIKGLTLTKHNADLYVDLSSIAKGFGVDKIAAILDKYHVSGYLVEIGGELNVKGTKDDNTPWRVAVEQPTTEGQAVQQVIEPGTMSLATSGDYRNFYQENGERFSHLIDPRNGYPIKHQLASATVLHSSCMTADGYATAMMVLGTEASLALAKEKNLAIMLIEKQEQGYQVYYSDAFKSYVK | not soluble |
| VKNKKFTIIGGDLRSVKLAELIVAEGNKVNIYGFKNANFEIGIEESEDLDHAIGEADVIVGPTPCSTDNETINTPFHSQKIFIKDIFKKMNKSQLFIAGRITDKIAQLADVYNVYSVDLLEREEMAVLNAIPTAEGAIQIAMEEMPITLHGSNALILGFGRIGKILAKMLHGIGSNVYVEARKYSDLAWIESYGYKPVFITELESYIDRANVIFNTIPSIVLDENLLRKVNKDCLLIDLASKPGGIDFEKAKEMGLKTIWALSLPGKVAPVTAAKFIKDTISNIIDELGV | not soluble |
| MGGFGLKYRPVPIKRVLPGSIAQESDLQEGDLILSINGQKISDIFDYRFLIADENLVLEVQKKNGEIWEIEIEKDEYEDLGIEFENLMIDDTKSCRNKCIFCFIDQLPKGMRETLYFKDDDSRLSFFMGNYVTLTNMSYDDIDRIIKYKMSPINVSVHTSNPELRVYMLRNKTAGDVMDKIKRLIEGGIKVNAQIVLVRGVNDGKELDRTLKDLSALYPGLNSISVVPVGITKYREGLYELKPFDMESSREVIKQVEAWQMELLSKYGSRIVFIADEFYIMAGLEIPDYCVYEDFPQIENGVGLVAMLKKEFDDYFEELELKLENKREVSIATGVSSYKYIKEMIDILENKYKNLYVHVYKIKNNFFGENVTVTGLLTGQDIERQLSGKNLGRELLLSESMLKSGERVFLDDYTVEMLEDKLKTKITIVRNNGKDFIEKVLGIVL | soluble |
| SLRSIMTPRGEISWVDAEQSEDEIRRQLLSSPHSLFPVCRGELDEIIGIVRAKEMLVALESGENVAALASASPAIVVPETLDPINLLGVLRRARGSFVIVTNEFGVVQGLVTPLDVLEAIAGEFPDADETPEIVIDGDGWLIKGSTDLHALQQALGLDPLINDDEDIATVAGLVISANGHIPRIGDVVSLPPLHFTVVEANDYRVDLVRAVVTRPPSDEEE | not soluble |
| MFSIQQPLLVFSDLDGTLLDSHSYDWQPAAPWLTRLREANVPVILCSSKTSAEMLYLQKTLGLQGLPLIAENGAVIQLAEQWQEIDGFPRIISGISHGEISLVLNTLREKEHFKFTTFDDVDDATIAEWTGLSRSQAALTQLHEASVTLIWRDSDERMAQFTARLNELGLQFMQGARFWHVLDASAGKDQAANWIIATYQQLSGKRPTTLGLGDGPNDAPLLEVMDYAVIVKGLNREGVHLHDEDPARVWRTQREGPEGWREGLDHFFSAR | soluble |
| MKNSKAILQVPGTMKIISAEIPVPKEDEVLIKVEYVGICGSDVHGFESGPFIPPKDPNQEIGLGHECAGTVVAVGSRVRKFKPGDRVNIEPGVPCGHCRYCLEGKYNICPDVDFMATQPNYRGALTHYLCHPESFTYKLPDNMDTMEGALVEPAAVGMHAAMLADVKPGKKIIILGAGCIGLMTLQACKCLGATEIAVVDVLEKRLAMAEQLGATVVINGAKEDTIARCQQFTEDMGADIVFETAGSAVTVKQAPYLVMRGGKIMIVGTVPGDSAINFLKINREVTIQTVFRYANRYPVTIEAISSGRFDVKSMVTHIYDYRDVQQAFEESVNNKRDIIKGVIKISD | soluble |
| MSLSAPYRKQIISNAHNKPSLFSKIKTFFTQKDSARVSPRNNVANKQPRNESFNRRISSMPGGYFHSEISPDSTVNRSVVVSAVGEARNDIENKEEEYDETHETNISNAKLANFFSKKGNEPLSEIEIEGVMSLLQKSSKSMITSEGHHHHHH | soluble |
| MPSYKLTYFNVRGYGEPARILFHLADVPFEDFRMTIGDGTWENLKAKTPFGQAPVLSVDGFEIPQSAAINRYLAKQFGYAGKTPEEQAWTDAIVDQYKDFMVSIKEVGKASAAGKSAEEVGKIIQSDLVPARDAFFVIINKILEKSKSGFLVGDGLTIADIVIVECITTLDKHQLFTASEQPKLVALREKVYAIPAIKKWVEIRPDTLN | not soluble |

— the DeepSol protein solubility set
